Results from patent publication US20020110800.

Target: wild-type TrkA, baculovirus-expressed, activated (autophosphorylated) (UniProt P04629)

## SHP-1
  dephosphorylation of 32P-autophosphorylated Trk in vitro: approximately 5-fold dephosphorylation
